Experimental data published in the supplement of paper PMC9732359.
± gives the uncertainty stated by the source.

Test: protein stability index of a GFP-peptide fusion (yeast GPS) (PSI 1-4); higher = more stable; sorted into four equal gates, so the index is relative within each strain
Outline: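 Mid-log yeast cultures in leucine-free medium, carrying a pooled plasmid library, were sorted into four equal gates by their GFP/Cherry fluorescence ratio. Each plasmid expressed Cherry along with GFP fused upstream of a tiled 17-residue yeast protein peptide. Plasmids recovered from each gate were PCR-amplified and Illumina-sequenced, with reads assigned to strains by barcodes. The protein stability index was obtained by summing each gate's read frequency weighted by its gate number.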

| Sequence | protein stability index (doa10∆) | protein stability index (pdr5∆) | protein stability index (san1∆) | protein stability index (ubr1∆) |
| --- | --- | --- | --- | --- |
| QFSYVDSSMTTVQENEL [AAR2] | 2.62 ± 0.044 | 2.99 ± 0.05 | 2.98 ± 0.04 | 2.95 ± 0.052 |
| ALIKFMEYHISNTDETK [FAS2] | 2.77 ± 0.1 | 2.5 ± 0.077 | 2.59 ± 0.12 | 2.3 ± 0.055 |
| NEYVAKVSAREKSAYKF [FAS2] | 3.23 ± 0.082 | 3.16 ± 0.073 | 3.04 ± 0.093 | 3.32 ± 0.061 |
| LLINTNFNKFFKIWHGE [PCI8] | 1.37 ± 0.04 | 1.38 ± 0.04 | 1.57 ± 0.061 | 1.37 ± 0.044 |
| IFNSNKAKIIPGNGKHA [SIR4] | 2.34 ± 0.11 | 3.13 ± 0.2 | 1.9 ± 0.17 | 2.2 ± 0.093 |
| KVLLDSKDVQQIDYKLE [RPS7A] | 2.69 ± 0.21 | 3.15 ± 0.15 | 3.31 ± 0.061 | 3.2 ± 0.12 |
| NVKFLRIFISNVSENQP [SNF12] | 1.53 ± 0.095 | 1.63 ± 0.075 | 2.02 ± 0.075 | 1.95 ± 0.069 |
| KPLGPCDVFWVQKDTAI [POP1] | 2.85 ± 0.07 | 3.03 ± 0.069 | 2.89 ± 0.06 | 2.96 ± 0.054 |
| FNVHEVPRAALEERFDP [YMR129W/POM152] | 3.13 ± 0.067 | 3.15 ± 0.078 | 3.16 ± 0.069 | 3.03 ± 0.079 |
| AFVKQKNDSLEKTINDL [YIL149C/MLP2] | 3.1 ± 0.11 | 3.19 ± 0.11 | 3.02 ± 0.14 | 3.11 ± 0.12 |
| VVEGVTFVVEQLIKQSI [SNU114] | 2.52 ± 0.076 | 2.6 ± 0.095 | 3.44 ± 0.098 | 2.85 ± 0.067 |
| QILIFAADTSIVEQDKS [YJL039C/NUP192] | 2.04 ± 0.13 | 2.44 ± 0.21 | 2.45 ± 0.18 | 2.54 ± 0.25 |
| TDKSNSPIGFTNSPQIS [SMC2] | 3.02 ± 0.05 | 3.16 ± 0.054 | 3.03 ± 0.043 | 3.03 ± 0.043 |
| DKARRLGYKAKQGFVIY [RPL15A] | 3.24 ± 0.16 | 3.33 ± 0.23 | 2.91 ± 0.14 | 3.28 ± 0.25 |
| DSIYTKPVKVALIFIFF [YJL039C/NUP192] | 1.69 ± 0.039 | 1.68 ± 0.033 | 1.5 ± 0.058 | 1.68 ± 0.023 |
| FKSSVEMGKTDKSTKTA [YOR098C/NUP1] | 3.45 ± 0.095 | 3.24 ± 0.099 | 3.24 ± 0.05 | 3.43 ± 0.063 |
| KAIFPNTVDGDLLKLVH [FAS1] | 2.19 ± 0.17 | 3.06 ± 0.14 | 2.22 ± 0.14 | 1.92 ± 0.05 |
| LIGSIRFPTKFVTQFRH [RET1] | 1.57 ± 0.056 | 1.41 ± 0.057 | 1.29 ± 0.16 | 1.31 ± 0.048 |
| DIIQGNPLMYSGGNNTA [PCI8] | 3.17 ± 0.082 | 3.13 ± 0.08 | 3.32 ± 0.047 | 3.24 ± 0.072 |
| IAFDDLIENKIQNKKIQ [RPN8] | 2.54 ± 0.07 | 2.25 ± 0.081 | 2.57 ± 0.066 | 2.71 ± 0.05 |
| NTNNNNSTGHSSNTNNN [SWI1] | 2.63 ± 0.049 | 2.29 ± 0.05 | 2.41 ± 0.058 | 1.93 ± 0.05 |
| VAGGKKALAIFVPVPSL [RPS7A] | 2.49 ± 0.056 | 1.53 ± 0.047 | 1.7 ± 0.088 | 1.54 ± 0.043 |
| LLYYIPSLELSAEYLQM [YJR042W/NUP85] | 1.12 ± 0.09 | 2.03 ± 0.18 | 1.45 ± 0.29 | 1.15 ± 0.12 |
| YEKELMGDELTRSHFNA [RPN6] | 2.96 ± 0.13 | 3.39 ± 0.15 | 3.34 ± 0.057 | 3.48 ± 0.1 |
| IDETMMDKPLNFRILKS [SRB5] | 2.95 ± 0.14 | 3.09 ± 0.13 | 2.76 ± 0.087 | 2.79 ± 0.13 |
| LPMDTNLFKINSIDVPI [YMR129W/POM152] | 1.98 ± 0.048 | 1.92 ± 0.035 | 2.49 ± 0.062 | 1.95 ± 0.045 |
